Experiments:
[1] = target: T1, Human CD3εδ Fc heterodimer (Hu CD3ε Fc + CD3δ Fc-HIS) (human, UniProt P07766 22-126; P04234 22-100); assay: BLI (Octet), Fab monovalent, pH 6.0
T1 construct: range 22-126;range 22-100; Made in HEK 293 cells with a heterologous signal peptide; also called Hu CD3εδ-Fc; CD3εδ Fc-HIS heterodimer; not shown: Fc; Fc followed by HIS tag

[2] = target: T2, Cynomolgus CD3εδ Fc heterodimer (Cy CD3ε Fc + CD3δ Fc-HIS) (cynomolgus, UniProt Q95LI5 22-117; Q95LI8 22-100); assay: BLI (Octet), Fab monovalent, pH 6.0
T2 construct: range 22-117;range 22-100; Made in HEK 293 cells with a heterologous signal peptide; also called Cy CD3εδ-Fc; cyno CD3εδ Fc; not shown: Fc; Fc followed by HIS tag
T2 sequence (Q95LI5 22-117, stated change not applied, form in doubt, chain 1 of 2): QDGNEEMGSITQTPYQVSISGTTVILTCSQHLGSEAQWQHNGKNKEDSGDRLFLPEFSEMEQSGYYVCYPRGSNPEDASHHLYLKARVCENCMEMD
T2 sequence (Q95LI8 22-100, stated change not applied, form in doubt, chain 2 of 2): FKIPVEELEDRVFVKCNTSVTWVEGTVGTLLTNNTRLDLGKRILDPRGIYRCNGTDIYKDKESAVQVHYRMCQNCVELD

[3] = target: T1, Human CD3εδ Fc heterodimer (Hu CD3ε Fc …); assay: BLI (Octet), Fab monovalent, pH 7.4
[4] = target: T2, Cynomolgus CD3εδ Fc heterodimer (Cy …); assay: BLI (Octet), Fab monovalent, pH 7.4
[5] = target: T3, Rhesus CD3εδ Fc heterodimer (rhesus); assay: BLI (Octet), Fab monovalent, pH 7.4
T3 construct: extracellular domain; also called Rh CD3εδ-Fc

[6] = target: T1, Human CD3εδ Fc heterodimer (Hu CD3ε Fc …); assay: BLI (Octet), CD3εδ Fc on AHC sensor, 100 nM Fab
Experimental: (§1) Affinity of the anti-CD3 antibodies for CD3 was determined by measuring their kinetic constants (kₒₙ, koff, KD) on ForteBio Octet®. ForteBio affinity measurements were performed generally as previously described (Estep et al., MAbs. 2013 5(2):270-8). […] Sensors were equilibrated off-line in assay buffer for 30 minutes and then monitored on-line for 60 seconds for baseline establishment. For monovalent binding measurement, sensors with loaded CD3εδ Fc were exposed to 100 nM anti-CD3 Fab, as further described in Example 2 below] for 3 minutes, afterwards they were transferred to assay buffer for 3 minutes for off-rate measurement. Kinetics data were fit using a 1:1 binding model in the data analysis software provided by ForteBio.

[7] = target: T2, Cynomolgus CD3εδ Fc heterodimer (Cy …); assay: BLI (Octet), CD3εδ Fc on AHC sensor, 100 nM Fab
Experimental: as §1

[8] = target: T1, Human CD3εδ Fc heterodimer (Hu CD3ε Fc …); assay: SPR (Biacore), Fab over immobilized CD3εδ Fc, pH 6.0
[9] = target: T2, Cynomolgus CD3εδ Fc heterodimer (Cy …); assay: as above
[10] = target: T1, Human CD3εδ Fc heterodimer (Hu CD3ε Fc …); assay: SPR (Biacore), Fab over immobilized CD3εδ Fc, pH 7.4
[11] = target: T2, Cynomolgus CD3εδ Fc heterodimer (Cy …); assay: as above
[12] = target: T1, Human CD3εδ Fc heterodimer (Hu CD3ε Fc …); assay: SPR (Biacore), Fab over Hu CD3εδ-Fc; sensorgram inset tied by a line to the filled square (parent antibody) labelled A001; pH not given on the sheet
[13] = target: T1, Human CD3εδ Fc heterodimer (Hu CD3ε Fc …); assay: SPR (Biacore), Fab over Hu CD3εδ-Fc; sensorgram inset tied by a line to the filled square (parent antibody) labelled A002; pH not given on the sheet
[14] = target: T1, Human CD3εδ Fc heterodimer (Hu CD3ε Fc …); assay: SPR (Biacore), Fab over Hu CD3εδ-Fc; sensorgram inset labelled V007, tied by a line to an open square (PSR-optimized antibody); pH not given on the sheet
[15] = target: T1, Human CD3εδ Fc heterodimer (Hu CD3ε Fc …); assay: SPR (Biacore), Fab over Hu CD3εδ-Fc; sensorgram inset labelled V013, tied by a line to an open square (PSR-optimized antibody); pH not given on the sheet
[16] = target: T4, Human CD3 on CD3+ Jurkat cells (human, UniProt P07766 23-207); assay: flow cytometry, Fab titration
T4 construct: whole, on cells; Target is the endogenous CD3 complex on cells; also called Human CD3+ Jurkat cells
T4 sequence (P07766 23-207): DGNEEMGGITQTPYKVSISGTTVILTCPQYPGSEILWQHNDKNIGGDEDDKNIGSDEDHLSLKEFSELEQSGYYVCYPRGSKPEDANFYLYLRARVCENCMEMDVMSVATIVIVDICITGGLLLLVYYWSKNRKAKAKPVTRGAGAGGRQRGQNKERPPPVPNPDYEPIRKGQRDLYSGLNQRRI
Experimental: Further FACS analysis was conducted using 3-fold serial dilutions of anti-CD3 antibody Fab fragments. Fab fragments were generated from whole IgG antibodies by papain digestion and purified over KappaSelect or CaptureSelect IgG-CH1 (GE Healthcare LifeSciences) before preparation of serial dilutions. Binding to human CD3+ Jurkat cells and Cynomolgus monkey CD3 HSC-F cells was assessed with each diluted sample and results were used to build a titration curve and calculate half maximal effective concentration (EC50) values for Fab binding.

T1 sequence (P07766 22-126, stated change not applied, form in doubt, chain 1 of 2): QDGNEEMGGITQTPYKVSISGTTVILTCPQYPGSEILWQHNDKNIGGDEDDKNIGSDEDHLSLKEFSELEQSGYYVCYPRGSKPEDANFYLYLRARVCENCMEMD
T1 sequence (P04234 22-100, stated change not applied, form in doubt, chain 2 of 2): as the sequence (Q95LI8 22-100, stated change not applied, form in doubt, chain 2 of 2) above, with V5I, K15N, V20I, T32S, N33D, N34I, A64T, N74S counted along it

| Binder | Kd [1] [nM] | Kd [2] [nM] | Kd [3] [nM] | Kd [4] [nM] | Kd [5] [nM] | Kd [6] [nM] | Kd [7] [nM] | Kd [8] [nM] | Kd [9] [nM] | Kd [10] [nM] | Kd [11] [nM] | Kd [12] [nM] | Kd [13] [nM] | Kd [14] [nM] | Kd [15] [nM] | EC50 [16] [nM] |
| --- | --- | --- | --- | --- | --- | --- | --- | --- | --- | --- | --- | --- | --- | --- | --- | --- |
| Antibody No. A001 (ADI-26906) Fab (Fab, V domains shown, Fab by papain digestion of the IgG1) VH: QVQLVQSGAEVKKPGASVKVSCKASGFNIKDYYMHWVRQAPGQRLEWMGWIDLENANTIYDAKFQGRVTITRDTSASTAYMELSSLRSEDTAVYYCARDAYGRYFYDVWGQGTLVTVSS VL: DIVMTQSPDSLAVSLGERATINCKSSQSLLNARTGKNYLAWYQQKPGQPPKLLIYWASTRESGVPDRFSGSGSGTDFTLTISSLQAEDVAVYYCKQSYSRRTFGGGTKVEIK | 5.8 | 5.9 | 6 | 5.9 | 6.1 | 2.81 | 2.9 | 1.3 | 1.9 | 1.1 | 1.1 | 2 |  |  |  |  |
| Antibody No. A002 (ADI-50024) Fab (Fab, V domains shown, Fab by papain digestion of the IgG1) VH: QVQLVQSGAEVKKPGASVKVSCKASGFNIKDYYMHWVRQAPGQRLEWIGWIDLENANTVYDAKFQGRVTITRDTSASTAYMELSSLRSEDTAVYYCARDAYGRYFYDVWGQGTLVTVSS VL: DIVMSQSPDSLAVSLGERATINCKSSQSLLNARTGKNYLAWYQQKPGQPPKLLIYWASTRSSGVPDRFSGSGSGTDFTLTISSLQAEDVAVYYCVQSYFRRTFGGGTKVEIK | 1.3 | 1.7 | 1 | 1.3 | 1.2 | 0.5 | 0.57 | 0.31 | 0.2 | 0.059 | 0.076 |  | 0.244 |  |  |  |
| Antibody No. V007 (ADI-67450) Fab (Fab, V domains shown, Fab by papain digestion of the IgG1) VH: QVQLVQSGAEVKKPGASVKVSCKASGFNIDDYYMHWVRQAPGQRLEWMGWIDLENANTIDDAKFQGRVTITRDTSASTAYMELSSLRSEDTAVYYCARDAYGRYFYDVWGQGTLVTVSS VL: DIVMTQSPDSLAVSLGERATINCKSSQSLLNARTGKNYLAWYQQKPGQPPKLLIYWASTRESGVPDRFSGSGSGTDFTLTISSLQAEDVAVYYCKQSYSRRTFGGGTKVEIK | 6.9 | 6.9 | 7.4 | 8.7 | 9.2 | 5.39 | 5.03 | 2.8 | 2.1 | 4 | 2.7 |  |  | 3.7 |  |  |
| Antibody No. V013 (ADI-70330) Fab (Fab, V domains shown, Fab by papain digestion of the IgG1) VH: QVQLVQSGAEVKKPGASVKVSCKASGFNIDDYYMHWVRQAPGQRLEWIGWIDLENANTVDDAKFQGRVTITRDTSASTAYMELSSLRSEDTAVYYCARDAYGRYFYDVWGQGTLVTVSS VL: DIVMSQSPDSLAVSLGERATINCKSSQSLLNARTGKNYLAWYQQKPGQPPKLLIYWASTRSSGVPDRFSGSGSGTDFTLTISSLQAEDVAVYYCVQSYFRRTFGGGTKVEIK | 1.6 | 1.9 | 2.4 | 2.4 | 2.5 | 1.16 | 1.23 | 1.6 | 0.27 | 0.18 | 0.22 |  |  |  | 0.681 |  |
| Antibody No. V011 (ADI-70328) Fab (Fab, V domains shown, Fab by papain digestion of the IgG1) VH: QVQLVQSGAEVKKPGASVKVSCKASGFNIDDYYMHWVRQAPGQRLEWIGWIDLENDNTVYDAKFQGRVTITRDTSASTAYMELSSLRSEDTAVYYCARDAYGRYFYDVWGQGTLVTVSS VL: DIVMSQSPDSLAVSLGERATINCKSSQSLLNARTGKNYLAWYQQKPGQPPKLLIYWASTRSSGVPDRFSGSGSGTDFTLTISSLQAEDVAVYYCVQSYFRRTFGGGTKVEIK |  |  |  |  |  | 0.82 | 0.86 |  |  |  |  |  |  |  |  | 2.77 |
